The results in this text go back to the nanobody polyreactivity screen of Harvey et al. (2022).

The data set is described as follows: yeast display, Sf9 membrane polyspecificity reagent, FACS + sequencing; frameworks hold sequencing errors. In outline: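 A nanobody's polyreactivity label depends on the gate it was sorted from. Yeast display cells were stained with 10% biotinylated, detergent-solubilized Sf9 membrane reagent for 1 hour at 4 °C, enriched on streptavidin microbeads and sorted by FACS. The low and high (top ~1%) gates were set on anti-HA fluorescence for expression and streptavidin fluorescence for reagent binding.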
As for “QVQLVESGGGLVQAGGSLRLSCAASGRIFYFYAIGWYRQAPGKERELVASITSAGSTYYADSVKGRFTISRDNAKNTVYLQMNSLKPADTAVYYCARVRWGSRGGYIAYYGGGYWGQGTQVTVSS”, the “polyreactivity (PSR sort gate)” value is recorded as “high polyreactivity”.
Consider “QVQLVESWGGLVQAGGSLRLSCVPPDSSSLTILWDGIDRRLGKKGSWLPVLTSRGVGTYYADSVKGRFTNSRDNAKNTFYLQMNSMKPEDSAVYYCNARYEVFYRYDYWGHGTQVTVSS”, for which the “polyreactivity (PSR sort gate)” value is on record as “low polyreactivity”.
In the case of “QVQLVESGGGLVQAGGSLRLSCAASGYTIISYGMGWYTQAPGKERELVAAISSGDRTNYADSVKGRFTISRDNAKNTVYLQMNSLKPEDTAVYYCNADRASSSVGYSDEFGHDSWGQGTQVTVSS”, the “polyreactivity (PSR sort gate)” value is given as “low polyreactivity”.
Turning to “QVQLVESGGGLVQAGGSLRLSCAASGFIFVRYAMGWYRQAPGKQRELVASITRSGGSTYYADSVKGRFTISRDNAKNTVYLQMNSLKPEDTAVYYCAASYFRSRGSTYGYWGQGTQVTVSS”, the “polyreactivity (PSR sort gate)” value is on record as “high polyreactivity”.
As to “QVQLVESGGGLVQAGGSLRLSCAASGSTFTLYAMGWYRQAPGKERELVAAISGIGDSTYYADSVKGRFTISRDNAKNTVYLQMNSLKPEDTAVYYCAADGEYRYDWEYESWGQGTKVTVSS”, the “polyreactivity (PSR sort gate)” value is listed as “low polyreactivity”.
The value for “QVHLVESGGGLVQAGGSLGLSCAASGFTFTRNTMGWYRQAPGKERELVAAITRGGSTNYADSVKGRFTISRDNAKNTVYLQMNSLKPEDTAVYYCNKGRNVVLVRTADDYWGQGTQVTVSS” was “low polyreactivity”; that for “QVQLVESGGGLVQAGGSLRLSCAASGSIFFLYTMGWYRQARGKERELVAAITRNGGSTYYADSVKGRFTISRDNAKNTVYLQMNSLKPEDTAVYYCNALRWYSYNYWGQGTQVTVSS” was “high polyreactivity”; that for “QVQLEESGGGLVQAGGSLRLSCAASGSTFWPYSMGWYRKATGKERELVAAITLRGGTTYYADSVKGRFTISRDNAMNTVYFQMNSLKPEDTAVYYCNADDYHYFSYDYWGQGTQVTVSS” was “low polyreactivity”.
The value for “QVQLVDSGGGLVQAGGSLRLSCAASGSIFGSYAMGWYRQAPGKERELVAGISGRGGSTYYADSVKGRFTISRDNAKNTVYLQMNSLKPEDTAVYYCAAGRRNGWLIPHYYWGQGTQVTVSS” was “high polyreactivity”; that for “QVQLQESGGGLVQAGGSLRLSCAASGSIFQLHIMCWYRQAPGKERESVAAISYGTSTYYADSVKGRFTICRDNAKNTVYLQMNSPKTDDTAVYYCAALFLVSKHHHYWGEGTQVTVSS” was “low polyreactivity”.
Consider “QVQLVESGGGLVQAGGSLSLSSAASGRTFTFNTMGWYRQAPGKERELVAAIDGDGTTNYADSVKGRFTISRDNAKYTVYLQMNSLKPEDTAVYYCAADFLYSFWYEPTFDYWGQGTQVTVSS”, for which the “polyreactivity (PSR sort gate)” value is recorded as “low polyreactivity”.
Regarding “QVQLVESGGGLVQAGGSLRFSCAASGGTFWYYAMGWYRQAPGKERELDASISRGGSTNYADSVKGRFTISRDNAKNTVYLQMNSLKPEDTAVYYCIAGLRVGPRRYVDYEYDYWGQGTQVTVSS”, the “polyreactivity (PSR sort gate)” value is “low polyreactivity”.
For the sequence “QVQLVESGGGLVQAGGSLRLSCAPSGSTFGYNDMGWYRQAPGKERELVAAIDTGVSTNYADSVKGRFTISRDNAMNTVYLQMNSLKPVDTAVYYLAKSGSAYWHSGWSVGFDYWGQGTQVTVSS”, the “polyreactivity (PSR sort gate)” value is on record as “low polyreactivity”.
On to “QVQLVESGGGLVQAGGSLRLSCAASGRTFVTNAMGWYRQAPGKERELVAAISSNGGSTYYADSVKGRFTISRDNAKNTVYLQMNSLKPEDTAVYYCNAEGQPLYVSWHDHRYIYGFDYWGQGTQVTVSS”, for which the “polyreactivity (PSR sort gate)” value is given as “low polyreactivity”.
As to “QDQLQESGGGLVQAGGSLRLSCAASGSISYPRTMGWYRQAPGKEREFVAGIGVGGTTYYADSVKGRFTISRDNAKNTVYLQMKSLKPEDAAVYYCAVAAYYDKYYVYWGQGTQVTVSC”, the “polyreactivity (PSR sort gate)” value is “low polyreactivity”.
With “QVQLVESGGGLVQAGGSLRLTCAASGNIFYINAMGSYRQAPGKDRELVAAIRGGGSTYYADSVKGRFTISRDNAKKTVYLQMTSLKAEDTAVYYCAARGRRLNPQYRAFGMDYWGQGTQVTVSS”, the “polyreactivity (PSR sort gate)” value is on record as “high polyreactivity”.
Regarding “QVQLVESAGVLVQAGGSLRLSCAACGSIFDYYALGWYRQAPGKERELVDTISGGGGTTYYADSVKGRFTISRDNAKNTVYLIMNSLKPEDTAVYYCAADSLGYNYWGQGTQVTVSS”, the “polyreactivity (PSR sort gate)” value is recorded as “low polyreactivity”.
With “QVQLVESCGGLVQAGGSLRISCAASGIIFHLYAMGWYRQAPGKQRELVAAISWNGSSTYYADSVKGRFTISRDYAKNTVYLQRNSLKPEDTAVYYCAASYGYFEDYGYWGHGTQVTVSS”, the “polyreactivity (PSR sort gate)” value is reported as “low polyreactivity”.
Regarding “QVQLVESGGGLVQAGGSLRLSCAASGNTFFLYAMGWYRQAPGKERELVAVISASGGSTYFADSVKGRFTISRDNAKNTVYLQMNSVKPEDTAVYYCAKTPRTYYRYRNAFHYYYWGQGTQVTVSS”, the “polyreactivity (PSR sort gate)” value was “high polyreactivity”.
“QVQLVESGGGLVQAGGSLRLSCAASGSTIPSYAMGWYRAAPGKERELVASITYSDGPTRYADSEKGRFTISRDNAKNTVFLQMNSLKPEDTAVYYCNAVYYREGMDYWGQGNQVTVSS”: the “polyreactivity (PSR sort gate)” value is on record as “low polyreactivity”.
On to “QVQLVESGGGLVQAGGRLRLSCAASGSIFYSNAMGWYRQAPGKEREFVAAISAGGGSTYYADSVKGRFTISRDNAKNTVYLQMNSMKPEDTAVYFCAAQPYKIIYPYDYWGQGTQVTVSS”, for which the “polyreactivity (PSR sort gate)” value is “low polyreactivity”.
Turning to “PVQLVESGGGLVQAGGSLRLSCAASGFTFSYYAMGWYRQAPGQEWELVAGIDDSCGSTYYADSVKGRFTISRDNAKNTVELQMNSLKPEDTAFYYCNAVYARKYYYSHGYDYWGQGTQVTVSS”, the “polyreactivity (PSR sort gate)” value was “high polyreactivity”.
In the case of “QVQLVESGGGLVQAGGSLRLSCAASGRTFSEYAMGWYRQAPGKERELVAAITENGGSTYYADSVKGRFTISRDIAKNTVYLQMNSLKPEDTAVYYCAAETWADWYSEFYWGQGTLVTVSS”, the “polyreactivity (PSR sort gate)” value is on record as “high polyreactivity”.
Regarding “QVQLVESGGGLVQAGGSLRLSCAASGFIIYTYAMGWYRQAPGKERELVAAISRGGRTNYADSVKGRFTISRDNAKNTVYLQMNSLKPEDTAVYYCASSYSHRYDYWGQGSQVTVSS”, the “polyreactivity (PSR sort gate)” value is “high polyreactivity”.
As for “QVQLVESGGGLVQAGGSLRLSCAASGRIFGRYAMGWYRQAPGKERELVAAITRSGGNTYYADSVKGRFTISRDNAKNTVYLQMNSLKPEDTAVYYCAVRQLDRRSPKYNYWGQGTQVTVSS”, the entry is “high polyreactivity”; as for “QVQLVESGGGLVQAGCSLRLSCAASGSIFRAYAMGWYRHAPGKERELVAGISGSGGSTYYADSVKGRFTISRDNAKNTVYLQMNSLKPQDTAVYYCAKALSTYQRTGCYDYWGQGTQVTVSS”, “high polyreactivity”; as for “QVQLVESGGGLVQAGGSLRLSCAASGRTSYYAMGWYRQAPGKETELVAAINSGDSPTDADSVKGRFTISRDNAKNTVYLQMNTQTPEDTAVYYCATALYDWYSLEFDYWGQGTQVTVSS”, “low polyreactivity”.
For the sequence “QVQLVESGGGLVQAGGSLRLSCAASGRPFRGNAMGWYRQAPGKERQLVAAITGTGGSTYYADSVKGRFTISRDNAKNTVYLQMNSVKPEDTAVYYCAAVLRGHNGLNFEYWGQGTQVTVSS”, the “polyreactivity (PSR sort gate)” value is “high polyreactivity”.
In the case of “QVHLVESGGGLVQAGGSLRLSCAASGRIFGYNAMGWYRQAPGKERELVAAITGSRGSTYYADSVKGRFTFSRDTAKNTVYLQLNSLKPEDTAVYYCNAPGNHWGDWGHGTQVTVSS”, the “polyreactivity (PSR sort gate)” value was “low polyreactivity”.
With “QVQLVESGGGLVQAGGSLRLSCAASGSIFGRNAKGSYRQAPGKERELVAAITVSGGRTYYADSVKGRFTISRDNAKNTVYLQMNSLKPEDTAVYYCNKYPVYRAVYGGGYEYWGQGTQVTVSS”, the “polyreactivity (PSR sort gate)” value is “high polyreactivity”.
Consider “QEQLQESGGGQVQAGGSLLLSCAASGNIIRYYYMGWYRQAPGKERELVAAITYGTSTNYADSVKGRFTISRDNAKNTVYLQMNSLKPEDTAVYYCAVDVNYGDPLDNWGQGTQVTVSS”, for which the “polyreactivity (PSR sort gate)” value was “high polyreactivity”.
For “QVQLVESGGCLVQAGGSLRLSCAASGSTYPVNAMVWSRKEPGKERELDATISWNDDSTDYADSVKGRFTISRDNAKNNVYLQLKSLKPEDTAVYYCAADWHAWGLYTFNSWGQGTLVTVSS”, the “polyreactivity (PSR sort gate)” value is reported as “low polyreactivity”.
As for “QVQLVESVGGLVQAGGSLRLSCAASGSIFLQYTMGWYRQAPGKERELVAAITESDGSTYYADSVKGRFTISRDNAKNTVYLQMNSLKPEDTAVYYCAADVVYFKYWDKYDYWGQGTQVTVSS”, the entry is “low polyreactivity”.
For the sequence “QVQLHESGGGLVQAGGSLLSCAASGTISYYREMGWYRQAPGKERELVAGIGVGTITYYADSVKGRFTISRDNAKNTVYLHMNSLKPEDTAVYYCAAHFDGNDSHAYWGQGTQVTVSS”, the “polyreactivity (PSR sort gate)” value is “low polyreactivity”.
As for “QVQLVESGGGLVQAGGSLRLSCAASGIIFIHNAMGGYRQAPGTERELVAAINWSGGRTSYADSVKGRFTISRDNAKNTVYLQMTRLKPEDTAVYYCAADGRRYSGEYYYWGQGTQVTVSS”, the entry is “high polyreactivity”; as for “QVQLVESGGGLVQAGGSLRLSCAASGRIFKRNAMGWYRQAPGKERELVAAISYSGGSTYYADSVKGRFTISRDNAKNTVYLQMNSLKPEDTAVYYCAVDRYPTGITKYDYWGQGTQVTVSS”, “high polyreactivity”.
“QVQLVESGGGLFQAGGSLRLSCAPSGSNFSIYAMGWYRQAPGKERELVAAITWGGGSTYYADSVKGRFTISRDNAKNTVYLQMNSLKPEETAVYDCAADSLTWYGTYYYWGQGTQVTVSS”: the “polyreactivity (PSR sort gate)” value is on record as “high polyreactivity”.
As for “QVQLVESGGGLVQAGGSLRLSCAASGLIFYAYAMGWYRPAPGKERELVAAITSGSGTNYADSVKGRFTISRDNAKNTVYLQMNSLKPEDTAVYYCNAETYGLVPYYIYHYDFDYWGQVTQVTVSS”, the entry is “high polyreactivity”; as for “QVQLVESGGGLVQAGGSLRLSCAASGFIFGYYAMGWYRQAPGKERELVAAISSRGGSTYYADSVKGRFTISRDNAKNTVYLQMNSLKPEDTAVYYCAVRRVSFRHKFGQYDYWGQGTQVTVSS”, “high polyreactivity”.
Turning to “QVQLVESGGGLVQAGGSLRLSCAASGSTFYIYAMGWYRQAPGKERELVAAISSVGRTSYADSVKGRFTISRDNAKNTVYLQMNSLKPEDTAVYYCAADKVDDSSYVPRTVFRYESDYWGQGTQVTVSS”, the “polyreactivity (PSR sort gate)” value is given as “low polyreactivity”.
The value for “QVQLVESWGRLVQAGGSLRLTCAASGFIFSSYAMGWYRQAPGKERELVAAISQSGGRTYYADSVKGRFTISRDNAKNTVYLQMNSLKPEDTAVYYCNTLYTIGAVYYWGQGTQVTVSS” was “high polyreactivity”.
